T1: PcrV (aa136-257).6xhis (Pseudomonas aeruginosa)
T1 chain: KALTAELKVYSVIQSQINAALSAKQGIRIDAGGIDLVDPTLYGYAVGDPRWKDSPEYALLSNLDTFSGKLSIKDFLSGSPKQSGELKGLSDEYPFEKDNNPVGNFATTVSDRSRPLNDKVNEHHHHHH


Legend:
[1] = biological target: T2, PcrV of P. aeruginosa strain ATCC 700888 (Pseudomonas aeruginosa strain ATCC …); assay: cell-based or functional assay
[2] = biological target: T3, PcrV of P. aeruginosa strain 6077 (Pseudomonas aeruginosa strain 6077); assay: cell-based or functional assay
[3] = biological target: PcrV 136-233 (Pseudomonas aeruginosa); assay: ELISA, PcrV coated on plate, chemiluminescence
Description: (§1) Anti-PcrV monoclonal antibodies (mAbs) were assessed by ELISA for their ability to bind to recombinant PcrV proteins. […] The following morning, plates were washed three times with wash buffer (Imidazole buffered saline with Tween-20) and blocked for 1.5 hours at 25° C. with 200 μl of blocking buffer (3% BSA in PBS). […] Wells were washed three times and then incubated with 100 ng/ml anti-human HRP secondary antibody per well for one hour at 25° C. 100 μl of SuperSignal™ ELISA Pico Chemiluminescent Substrate was added to each well and signal was detected (Victor X3 plate reader, Perkin Elmer). Luminescence values were analyzed by a four-parameter logistic equation over a 10-point response curve (GraphPad Prism).

[4] = biological target: T4, recombinant full-length P. aeruginosa PcrV (Pseudomonas aeruginosa); assay: ELISA, PcrV coated on plate, chemiluminescence
T4 construct: Coated on ELISA plates; also called Full length PcrV; Full length PerV
Description: as §1

[5] = biological target: T1, PcrV (aa136-257).6xhis; assay: SPR (Biacore T200), mAb captured via anti-human Fc, PcrV injected, 37 C
Description: (§2) The equilibrium dissociation constant (KD) for different PcrV reagents binding to purified anti-PcrV monoclonal antibodies were determined using a real-time surface plasmon resonance based Biacore T200 biosensor. All binding studies were performed in 10 mM HEPES, 150 mM NaCl, 3.4 mM EDTA and 0.05% v/v Tween-20, pH 7.4 (HBS-EP) running buffer at 25° C. and 37° C. […] Proteins were injected over the captured anti-PcrV monoclonal antibody surface for 4 minutes at a flow rate of 50 μL/minute, while the dissociation of monoclonal antibody bound PcrV reagent was monitored for 10 minutes in HBS-EP running buffer.
(§3) Kinetic association (kₐ) and dissociation (kd) rate constants were determined by fitting the real-time sensorgrams to a 1:1 binding model using Scrubber 2.0c curve fitting software. Binding dissociation equilibrium constants (KD) and dissociative half-lives (t½) were calculated from the kinetic rate constants as:

[6] = biological target: T1, PcrV (aa136-257).6xhis; assay: SPR (Biacore T200), mAb captured via anti-human Fc, PcrV injected, 25 C
Description: as §2, §3

[7] = biological target: T5, full-length PcrV.6xhis (Pseudomonas aeruginosa); assay: SPR (Biacore T200), mAb captured via anti-human Fc, PcrV injected, 37 C
T5 construct: Recombinant full-length V-tip protein of the type 3 secretion system, His-tagged; also called full-length PcrV with a C-terminal hexahistidine tag
Description: as §2, §3

[8] = biological target: T2, PcrV of P. aeruginosa strain ATCC 700888; assay: cell-based or functional assay; remark: listed apart in the source
[9] = biological target: T3, PcrV of P. aeruginosa strain 6077; assay: cell-based or functional assay; remark: listed apart in the source
[10] = biological target: T5, full-length PcrV.6xhis; assay: SPR (Biacore T200), mAb captured via anti-human Fc, PcrV injected, 25 C
Description: as §2, §3

| Binder | Rabbit RBC Hemolysis Assay (IC50) [1] [nM] | Rabbit RBC Hemolysis Assay (IC50) [2] [nM] | Kd [5] [nM] | koff [5] [s⁻¹] | kon [5] [M⁻¹ s⁻¹] | t½ [5] [h] | Kd [6] [nM] | koff [6] [s⁻¹] | kon [6] [M⁻¹ s⁻¹] | t½ [6] [h] | 90 nM Ag Bound (RU) [7] [RU] | Kd [7] [nM] | koff [7] [s⁻¹] | kon [7] [M⁻¹ s⁻¹] | t½ [7] [h] | 90 nM Ag Bound (RU) [10] [RU] | Kd [10] [nM] | koff [10] [s⁻¹] | kon [10] [M⁻¹ s⁻¹] | t½ [10] [h] | further results |
| --- | --- | --- | --- | --- | --- | --- | --- | --- | --- | --- | --- | --- | --- | --- | --- | --- | --- | --- | --- | --- | --- |
| H1H29329P (antibody, V domains shown) VH: EVQLVESGGGLVQPGGSLRLSCAASGFTFSDHEMNWVRQAPGKGLEWISYIGSGVVTMYYADSVRGRFTISRDNAKKTLYLQMNSLRAEDTAVYYCARDRGYYFGSEAFHYWGQGTLVTVSS VL: DIQMTQSPSTLSASVGDRVTITCRASQSISNWLAWYQQKPGKAPKLLIYKSSSLESGVPSRFSGSGSGTEFTLTISSLQPDDFATYYCQQYKSYSLTFGGGTKVEIKR | 2.39 | 56.4 | 107 | 0.011 | 103000 | 0.0167 | 15 | 0.0023 | 153000 | 0.0833 | 59.6 | 9.12 | 0.00505 | 554000 | 0.0383 | 81 | 5.16 | 0.00095 | 184000 | 0.203 | EC50 [3]: 7.44 nM; EC50 [4]: 0.597 nM; A549 Cytotoxicity Assay (IC50) [8]: 54.3 nM; A549 Cytotoxicity Assay (IC50) [9]: 10.8 nM |
| REGN3514 (antibody, V domains shown, also called Control I; Control I-REGN3514) VH: EMQLLESGGGLVQPGGSLRLSCAASGFTFSSYAMNWVRQAPGEGLEWVSAITISGITAYYTDSVKGRFTISRDNSKNTLYLQMNSLRAGDTAVYYCAKEEFLPGTHYYYGMDVWGQGTTVTVSS VL: AIQMTQSPSSLSASVGDRVTITCRASQGIRNDLGWYQQKPGKAPKLVIYSASTLQSGVPSRFSGSGSGTDFTLSISSLQPDDFATYYCLQDYNYPWTFGQGTKVEIKR | 1.01 | 2.44 | 2.42 | 0.000596 | 246000 | 0.323 | 0.83 | 0.000122 | 147000 | 1.58 | 141 | 0.453 | 0.000196 | 431000 | 0.985 | 169 | 0.146 | 3.9e-05 | 267000 | 4.94 | EC50 [3]: 7.59 nM; EC50 [4]: 0.696 nM; A549 Cytotoxicity Assay (IC50) [8]: 17.8 nM; A549 Cytotoxicity Assay (IC50) [9]: 0.807 nM |
| H1H29332P (antibody, V domains shown) VH: EVQLVESGGDLVQPGGSLRLSCKASGFTFSTFAMNWVRQAPGRGLEWVSAIGASGYSTYYVDSMKGRFTISRDNSKNTLYLQMNSLGAEDTAVYYCAKEYSVSSNYYYGMDVWGQGTTVTVSS VL: DIQMTQSPSSLSASVGDRVTITCRASQTIRRYLNWYQQKAGKAPKLLIYAASSLLSGVPSRFSASGSGTDFTLTISSLQPEDFSTYYCQQTYSIPITFGQGTRLEIKR | 4.06 | 15.3 | 0.595 | 0.000106 | 178000 | 1.82 | 0.285 | 3.83e-05 | 133000 | 5.03 | 163 | 0.092 | 2.68e-05 | 293000 | 7.19 | 152 | 0.0548 | 1.3e-05 | 237000 | 14.8 | EC50 [3]: 0.814 nM; EC50 [4]: 2.12 nM; A549 Cytotoxicity Assay (IC50) [8]: 32.9 nM; A549 Cytotoxicity Assay (IC50) [9]: 6.47 nM |
| H1H29339P (antibody, V domains shown) VH: EVQLVESGGDLVQPGGSLRLSCAASGFTFNTYAMNWVRQAPGKGLEWVAVIGGSGYSTNYADSVKGRFTISRDNSKNTLYLQMNSLRTEDTAVYYCAKEGNIVALYWYFDLWGRGTLVTVSS VL: DIQMTQSPSSLSASVGDRVTITCRASQSISRYLNWYQQKPGKAPKLLIYAASSLQGGVPSKFSGSGSGTDFTLTISSLQPEDFATYYCQQSSTTPLTFGGGTKVEIKR | 5.59 | 2.3 | 0.186 | 8.15e-05 | 435000 | 2.36 | 0.0955 | 2.76e-05 | 293000 | 6.97 | 130 | 0.0197 | ≤ 1e-05 | 508000 | ≥ 19.2 | 140 | ≤ 0.0274 | ≤ 1e-05 | 365000 | ≥ 19.2 | EC50 [3]: 0.856 nM; EC50 [4]: 1.96 nM; A549 Cytotoxicity Assay (IC50) [8]: 7.82 nM; A549 Cytotoxicity Assay (IC50) [9]: 0.0333 nM |
| REGN3977 (antibody, V domains shown, also called Control III; REGN3977-Control III) VH: QVQLKQSGPGLVQPSQSLSITCTVSGFSLTSYGVHWVRQSPGKGLEWLGVIWSGGDTDYNAAFISRLSISKDNSKSQLFFKMNSLRATDTAIYYCARNRGDIYYDFTYAMDYWGQGTSVTVSS VL: DIQMTQSPASLSASVGETVTITCRASGNIQNYLAWYQQTQGKSPQLLVYSAKTLADGVPSRFSGSGSGTQYSLKINSLQPEDFGSYYCQHFWSTPYTFGGGTKLEIKR | – | – | 11.4 | 0.00245 | 216000 | 0.0783 | 4.28 | 0.000956 | 223000 | 0.202 | 136 | 3.48 | 0.000917 | 263000 | 0.21 | 146 | 2.39 | 0.000495 | 207000 | 0.39 | – |
| H1H29336P (antibody, V domains shown) VH: EVQLVESGGGLVQPGGSLRLSCAASGFTFSSYAMTWVRQAPGKGLEWVSSIRGSGYSSDYADSVKGRFTISRDNSENTVYLQMNRLRAEDTAVYYCAKERSVTAYYYYGMDVWGQGTTVTVSS VL: DIQLTQSPSFLSASVGDRVTITCWASQDISSFLTWYQQKPGIAPKLLIYTASTLQSGVPSRFSGSGSGTEFTLTISSLQPEDFATYYCQQLKSYPLTFGGGTKVEIKR | 0.81 | 0.205 | 0.0809 | 4.36e-05 | 544000 | 4.41 | 0.0408 | 1.48e-05 | 367000 | 13.1 | 80.7 | ≤ 0.0116 | ≤ 1e-05 | 860000 | ≥ 19.2 | 102 | ≤ 0.0204 | ≤ 1e-05 | 490000 | ≥ 19.2 | EC50 [3]: 1.03 nM; EC50 [4]: 2.28 nM; A549 Cytotoxicity Assay (IC50) [8]: 6.37 nM; A549 Cytotoxicity Assay (IC50) [9]: 0.84 nM |

From US20260184768A1 (Regeneron, published 2026)
